Assay results from patent publication US20260115279A1 (VIB VZW, published 2026).

Experiments:
[1] = molecular target: BamA, E. coli, untagged (endogenous, or co-expressed from pSlyB-BamA with its native signal peptide) (E. coli, UniProt P0A940 21-810); assay: cell-based or functional assay
[2] = molecular target: the molecule itself; assay: α-SlyB Western of semi-native PAGE of whole cell lysate, with or without 1 mM EDTA

| Protein | cellular thermal shift assay (CETSA) on cells treated with EDTA: melting temperature of BamA in ΔslyB mutant versus WT cells [1] [°C] | binding result [2] |
| --- | --- | --- |
| SlyB, native (endogenous) lipoprotein of E. coli (other, N-terminal Cys18 carries the lipid anchor) CVNNDTLSGDVYTASEAKQVQNVSYGTIVNVRPVQIQGGDDSNVIGAIGGAVLGGFLGNTVGGGTGRSLATAAGAVAGGVAGQGVQSAMNKTQGVELEIRKDDGNTIMVVQKQGNTRFSPGQRVVLASNGSQVTVSPR | ~4 |  |
| SlyB^PL, SlyB mutant I65A/V69A/F73A with disrupted outer leaflet phospholipid binding site (other, whole, on cells; Tested in whole cell lysates and membrane fractions) CVNNDTLSGDVYTASEAKQVQNVSYGTIVNVRPVQIQGGDDSNVIGAAGGAALGGALGNTVGGGTGRSLATAAGAVAGGVAGQGVQSAMNKTQGVELEIRKDDGNTIMVVQKQGNTRFSPGQRVVLASNGSQVTVSPR |  | no binding |
